Laboratory results as given in the NTF2 design screens of Basanta et al. (2020).

Assay: protease stability score; higher = more stable; yeast display proteolysis, trypsin and chymotrypsin;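 further: log10 excess protease needed over predicted unfolded state with 0 meaning unfolded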

| Sequence | protease stability score |
| --- | --- |
| DENIKRTMSDFLHAVRDGDEDKLFKLADPNARMKYGDKDVHGMEEIVHQIKRLRRDASVDIHIKRVEVDGNRVDIKLEVVVNVNGRPQRYRFEIKVRFHNGRINALENNIDEDQLRKIES | 1.21 |
| DENKEAKHFAQDINDAFQHNDPDHLNRLFDPNARMQIGDKEIRGKEQFKEENRRMVDQVDKVEVHVKEISVHNGRVEFVLIIRENHNGRNTQTSVEVNAEKQNGQIRIRQETEQ | -0.307 |
| DENKENEQFLRNYSKQLKDGNEEQLKRNFDPDAKVRYGDKDVSGREQIQKRIADEARKVDHYEITVKRVEKRGDHVRVEFDVRRHVNGKEESMDVVVIFVKHNGRMVISTVTID | 0.036 |
| DENKKAEKVARDYIKNAQTNNSESLKKLADPNVEVVIGDTTYTGTKDFVKFVQEIVRQADHISLNVRSVEVQGDKADVVAEVRVDFNGNQRRQDIRFHAQLQGDKVKLKMIQYK | 1.06 |
| DENKLKEVANRIVSAVRTNDPDHLANLFDKDDKFQIGEKQFHGHEELRKALEEIHQEVDRLHVKTYELHNGVVKIHVDMKYNGHEIKVVFYFTVHNGRLKYMEVKSQ | -0.346 |
| DENLERQASRLISALLDNDPDLAVELVDENVKVQIGDKTVHGRETVHRHIETLVHHMRMDLDRFHVEVSGEKAKITLDVRFKINGKPIKDTLDVFFTAHNGKIKSVHFRMPEEHKKQVDR | 0.899 |
| DENLLDHMKRLFESGDWDDFSKNADKHVRVHIGEFNYRGREQARTVMNKLQKSADHVEIKRISVHNGQLQMDVTVVVNGETITVRIAAHVSNGRFVELRMSATDSKDKKALQKVQS | 1.03 |
| DENLNTLMTQFMRAIQRGDEKRAKQLADPNAEIKYGDRSIHGMDQHADTIRKIRRKMRVDVTEVSHTTDGEQVNVEVTAIFNHNGEPKKRKFQFSATISNGRIKQVEVQDSQ | 0.654 |
| DENQVDQLKELMDALQNNDERKANDLADKNARIRIGDKDVSGRSDMNRMVRELHERIRFTIRTVELHHQGDKVIAKVKVEMDHNGKPNDVTQNAEAKYHNGHLQRLFFDTRS | -0.433 |
| DENREASTFMEQLQRNLRDGDHEEVVRMIDENARLEVGDKRIEGDHNVAHELMNQARRVDHFKMNITHLEVSNGRVKVVFIAKYEVNGRTEVNVYEQVLEIENGRLSLVSRRRK | 0.545 |
| DENRLRHLAHHMVEVLKTGNEEEIERLMDENVRLTYGDKEVHGRENVRQYIRQLREEIDHFSVQEIDVSGDKVTIVFTFIVNGQRVRAVLKVRFHNGRIVEATIEYTDEDQKRRADS | 1.35 |
| DENTEAQRFADNFNKLMNTGDEDTLNKLFDENAKVEVGDHRLHGREKLTKLAETNKQRFDHVKVDVDDIKVDNGTVQMRAVVIVYHNGRHHSVELEVVAQNHNGHARVKRMRVG | 0.553 |
| DENTQKQIAKKVVDVIRNGDPKQLHDLFDPNARLNIGDRTYTGSKEFQKHAETLRRNVDHIQVKSIDVQGEHIHINMVLNVNGKQYNANFRVDVHNGKAKQMSVEYRDKEEYKTLKR | 0.362 |
| DENVLKRVKELLRTNNWEELANKADKDVEMRVGDKEWRGREQVVRAHKKLYDRVDHFKIDSMHWRNGHLVVNFVAEVNGKRAVMVLEMKVHNGRIKRITLEARDKDDEEFIEEALR | 1.47 |
| DENVRRLVEHLIRAVQSNDPDKVVENLDPNASIHVGEKRYHGEDRAKDMYETEKNQMRVQVRLTQLHVQGNHAKLRETVLIDHNGRPVNVSLDMSLIAHNGRVHEIHETVPEENRKERKG | -0.029 |
| DENVVKEVEKLLEWIQSGNEQHIQEMMDKHARAQVGDQKVKGRKQVSTQWRRLAEDIDIHARVKDMKNDGNRAILEIHQVRHHNGDPDEFHANQIVTMHGDRIKHLELQNTK | -0.283 |
| DENVVKRVHDALQTNDWQQLADLFDKDARVHVGEFQLHGHEEVQKFVDLQRKQIDHMEVRSIEIDGERAEAEFVIRVDGRKREAEITIRANNGKAKEMKIQFTDKDFERKMREKME | 0.836 |
| DENVVKTAKNWFKAVQTGDTQEIHKNADPNARFQIGDKEYEGMEEYDKEQKERFEHMRVDYKDVTIRADGEHLHVKVKAKVNVNGQPHDVTFTIEARVDNGKFKEIVVKFDPDQQDRVEK | 0.338 |
| DEQAKEHIEEWMKAVKTGDEHTLREMADENAHFEIGDKTLHGMREFVKEQAERFRNIRVSYKRIDIRVQGNKVTVVVRFVVQHDGRPDERTVTFVFTFHNGQIENMQVKDEQ | 1.17 |
| DEQAKEVAEHWWEAVKKNDPTQAKENADKDVRARVGDQEIHGREDLATWLDQQKREMRIDLQIDSVSVSNGTLDIKAKMQVEDNGTPEHNTVEASMVVHNGRVKQFHIRVTK | 0.96 |
| DEQAMSVAEELISALNTGNEDQVDRLMDPNAHLQVGDKRLHGREEVRRHVKTLKDQARFDMKVDSLRVQGEKVRLDATYTFEVNGRPREDRVIIDMTLTNGTVKRIRFNFDPDDWRKMEG | 1.04 |
| DEQAQKRAKNFMTAIQSNDPQKVKENVDKDVNIRIGDRIVHGREQLEDYYSHWNTKMRQRVSFKRMDVQGNHVDLKAEASNTNNGQPNHFEVRITITFHNGKIEKANLEFQP | -0.422 |
| DEQATEVIERFLTALQRNDPHELKKQLDEDVRMNVGDKTLHGRDSFEKTWHEKLRTQRIELKDYRIEVQPGRVKAHVHYVVEHNGRPRTKRHTFSAEVHNGHVKHFHQQDEQ | -0.462 |
| DEQAVNEVEKMWRAIHDGDPERINKMFDPNAKFHIGNKELHGRENFATTMVKEQREIRRRVDIIRMSAHNGRITVRYRVDAEVNGEPYSNDITVSATVHNGKATDFTVHVDEDYLRKFNS | -0.004 |
| DEQDDAHKAKEFLEAVVTGNEERLRRMVDPNARIHYGDQEYHGREKIVDLMIRWRERVDHFTIDRVHSHNGRVQMDAFFTHNGRTKRFVARVVVHNGKVKSIEYTDG | 0.017 |

| Sequence | protease stability score |
| --- | --- |
| DEQDEVKTLLDEIRKALETNDRERLRELVDKDAHFEYGDKKYQGSEHAARQMVEEQKNIDSQSVQLRDVQIHNGQANVDVVIEYTHNGRKRTFDAKFRFKVENGRVKLVENVQS | 0.895 |
| DEQDLKKVREFVQAQEEGDEDKLRELMDPNARVRVGDHRINGMDEIVKTDKKEVDDIKLSITDLKMHVKGDHMKVRIHQIVNHNGRPHTKTVDVVAHRHNGRLKSMERQDTK | -0.122 |
| DEQDLNSVKENLKAIETNNPKRVKELLDKDARAQYGDKEVHGRDEIADQQRKEREDIDIRIDWKRMNIDNGRIHMEFEVQYNFNGKPLTNKVTMRNEAHNGSIKAMFWQLSEDQQRELDS | -0.374 |
| DEQDNEKARRIMDRGDPHELNRMADKDARVQVGDKTWHGRSQFEEFVKRFHDRVDHIEVKSVHVHGNEVRVDLVVVVNGHEARFIMVASVHNGHATSLSINVTDPRVEEVLRDIFD | 0.014 |
| DEQDQAKKFNDEVRKIFETGNFRQFARLLDKNVTAEVGDQEVHGKEQAHKWAEDVWRTFDHIHYNMVDVDVENGRVEVHVQLTYDHNGTTERRTYVMELKLSNGRLKIVHMKQG | 0.809 |
| DEQDQARKNVKTLANAIEDNDENQVHRLMDPNARLRIGDKDYHGREEAAHAMREIRETFDHIRIQVTRVRVEGDKINLIAKVNRNHNGRNEESEVDIQFVQDNGRARIVRLVDR | 0.554 |
| DEQDQARRIVRHLLSAIRNNDPHRFQNNVDENVTLQYGDKTYNGDEDVHKYIEQFKREQKNARLRLLRLRIDNGRIDVIVRLRADHNGKEIRQIIVFHLVVRNGQARVETAHEG | 1.17 |
| DEQDQLKLAERVLKAVNDNNPQKFEELADENATVKVGDKTWHGRSHAQEMIKRFKERVDSLEIKHIDNRGNRARVHLVLEHNGRTTEMSIVVTVENGRAKAVVVHTK | -0.133 |
| DEQEDRDMKKMYKNLQEGDDQRVADMADPNARWRVGDKTYHGKDSIRHWAKEVHDRMHFRIQSITVQNENGKVKVEIKWVTDENGKPVDQTVQVKAELHNGHIVDIDITTQS | 0.731 |
| DEQEDRDRLEEALHAVMTGDEDRLMELADPNVEIQIGDKTFHGNTEARKVVETLKRKVDHLRVEEITKRPGSAFVIAVMEVNGKQVTVTVRIQAENGRIVHVSMNPKQLQDLKS | 0.776 |
| DEQEERDFNRNMVEILQQGDEEKARTNMDKDAHATYGDREYHGREQLADLLKEFRDRVDHIEMKDYSVTNGRVNVVFVAVFDGKRVELHADIQFRNGRIKRMTFKFRNEEQQKKLER | 0.361 |
| DEQEHAKRVVRRLIDAFKDGDPKTYAQQLDPNVRIQIGDKEITGREKVREEFRTVRQRVDHVNLHVKRVDVNGDKIVVQIRVVRKHNGRTEQRTLVVEVRDHNGREVVKHVSFK | 0.884 |
| DEQEKAERLAKTAVEAYETNDPEVMRRLLPPDAEVRVGDKEIHGREENSRQVQRELDRVDRVQVSMKTVHVDGNKLNVVLELRVEHDGETDTREIVIIFDVRNGTIQAQEINIG | -0.05 |
| DEQELAEELFRDLTEAMKKGDPEQRKDLADEDVHQQVGDKTYHGREDNMKAMEELKRNYDSISIKLTSLSVHNGKVRIVFKVDFEHNGKTSTRRVVAHAYLQGDKVKIKKISEQ | 0.749 |
| DEQENEKNVKDVQHAMETGDEELMLRNAPPDVRMEIGDKTLRGREEVSKEFKKFAKQIDRHSIHSIRFRGDKFEINMVVTVNGRHAVVNIELQIHNGKVNSMRVDPHDLEQQKQ | -0.249 |
| DEQENKEIMRRVKEAFEHNDPDMFKKLFDEDATVEVGDKSFQGRDKIKEAMTQFKNQADRVRVDSVNVRGNKVDATVTADFNGKTASFKLEITWHNGKIKHMRINPEDNKKLQG | 0.951 |
| DEQEQAEELAKKMMENMETGDFDKRANQADPDARMEIGDKDVRGRETIASHQRELSDHIDHANATVLEVRVSNGDVEVRMQFRVQHNGRSRQEERIINATISGDKMRIKEFTQS | -0.116 |
| DEQEQAKDFARQLQKVFRYGDEERARQLADKHVKVNVGDKIFHGREKVQKWIREIKNRSDKYKIDIKSIRVKNGRITIEFKAQEEFNGERRRVTVNAKAKLDNGEIRLTSVDQK | 0.128 |
| DEQERAERLMEEMVRVLHTGDEKRLQQLADPNARFTIGDTRVHGSDEFARLLREHADNADSMQFRVKSIEVEGNHINIKFSFSVDINGRTESYTANIRIVEKGDKMQFHTQDMK | 0.402 |
| DEQERAQEALRRFLRVFQEGDPDRARQQADKDVQMVVGDKEYEGREQVSRAIESLRERVDEFHITVRRITVSGNRVVVDAKLKLNINGKEDDVTLKLVIDVSGDKISIKRVEVR | 1.12 |
| DEQEVREAAEVIVTGNEEQLRDNADPNVKLQVGDERYHGREHFVRMISKFQKQVDHRSVDHFHVKGDKVRINMVMHINGQHVVLQINAQIHNGRIKSMEIKVRDEKDKRILDQVEG | 1.76 |
| DEQHDREMVSRLKTALQHGDPDELVELADENARVEIGEKTVHGRHQIREQAKRWRERVDHVQIEDVDVQNGQARVQMTVDHNGRTRKEVVQMTAHNGTVESLRFQSQ | -0.216 |
| DEQIVHRAKEMDKAFNRGDPDLFNKMADENARVEVGDNVLNGRSDYKRYMDQVRKDLNVEIKSVHHQKRPNHARVKVDQVMNHNGQPRRRHIDIKIRAHNGTAKNIHFREDG | -0.326 |
| DEQKDAERAIEALRVMLQGDDDSVRKMVDPNATLTVGDTEYKGREEFVKYARTLRRRADHFRIDTVHVEGDTAVMQAQVNVNGKTKTIRINVRAHNGRVVHVHVDPDQLKRIES | 0.831 |
| DEQKDDKRSKDIKKQVEKGNEHEILKLFDKDAKVRVGDKVVQGRESIKDEIHHLRRRVDNIEVKEVHAQGDKVTVDVQVDVNGVQIRQVLHIQMNNGKVTDAKVEFTNEEQLRQMHG | 0.099 |
